T1: oligomycin sensitivity-conferring protein (OSCP) tagged with Clover GFP (UniProt P48047 24-213)
T1 construct: OSCP subunit of the mitochondrial ATP synthase; One vector carries OSCP-Clover and, downstream of an IRES, CypD-Scarlet; also called OSCP-Clover; OSCP subunit of the ATP synthase; source: HEK cells, transfected, in cells
T1 sequence (looked up): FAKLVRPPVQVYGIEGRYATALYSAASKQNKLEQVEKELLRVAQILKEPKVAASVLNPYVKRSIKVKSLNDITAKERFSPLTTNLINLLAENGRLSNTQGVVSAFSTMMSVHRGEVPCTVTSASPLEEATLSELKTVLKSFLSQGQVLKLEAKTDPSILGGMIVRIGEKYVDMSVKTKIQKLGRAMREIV

T2: oligomycin sensitivity-conferring protein (OSCP), endogenous in HEK cells (human (endogenous in HEK), UniProt P48047 24-213)
T2 construct: OSCP subunit of the mitochondrial ATP synthase, immunoprecipitated or stained in HEK cell lines; also called OSCP subunit of the ATP synthase; source: endogenous, HEK CypD mutant cell lines
T2 sequence (looked up): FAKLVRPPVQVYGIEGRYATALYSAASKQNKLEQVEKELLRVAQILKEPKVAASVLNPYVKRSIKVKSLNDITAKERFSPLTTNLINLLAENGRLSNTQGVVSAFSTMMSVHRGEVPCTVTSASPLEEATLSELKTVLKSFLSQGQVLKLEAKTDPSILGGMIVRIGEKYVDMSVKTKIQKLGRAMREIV

B1: cyclophilin D (CypD) WT tagged with Scarlet (natural protein)
chain: not shown
notes: also called PPIF; source: HEK cells, transfected, in cells
B2: cyclophilin D (CypD) phosphomimetic S191E mutant tagged with Scarlet (natural protein)
chain: not shown
notes: also called phosphomimetic mutant S191E; source: HEK cells, transfected, in cells
B3: cyclophilin D (CypD) phosphoresistant S191A mutant tagged with Scarlet (natural protein)
chain: not shown
notes: source: HEK cells, transfected, in cells
B4: cyclophilin D (CypD) WT, rescued in HEK CypD-KO cells (natural protein)
chain: not shown
notes: also called WT group; source: HEK CypD-KO cells (CRISPR/Cas9) rescued with WT CypD, in cells or lysate
B5: cyclophilin D (CypD) phosphomimetic S191E mutant, rescued in HEK CypD-KO cells (natural protein)
chain: not shown
notes: also called phosphomimetic S191E group; source: HEK CypD-KO cells (CRISPR/Cas9) rescued with mutated CypD, in cells or lysate
B6: cyclophilin D (CypD) phosphoresistant S191A mutant, rescued in HEK CypD-KO cells (natural protein)
chain: not shown
notes: also called phosphoresistant S191A group; source: HEK CypD-KO cells (CRISPR/Cas9) rescued with mutated CypD, in cells or lysate

target: T1, oligomycin sensitivity-conferring …; experiment: FRET or BRET; HEK cells transfected with OSCP-Clover and WT or mutant CypD-Scarlet downstream of an IRES; excitation 458 nm, emission 505-540 nm and 575-620 nm; FRET ratio; details: partners not purified

| Binder | FRET ratio |
| --- | --- |
| B1 | 1.92 |
| B2 | 2.44 |
| B3 | 1.29 |

target: T2, oligomycin sensitivity-conferring …; experiment: co-IP; OSCP immunoprecipitation in HEK CypD mutant cell lines, immunoblots of CypD and OSCP; quantified as fold vs. WT; details: partners not purified

| Binder | CypD co-immunoprecipitated with OSCP, fold vs. WT |
| --- | --- |
| B4 | 1 fold vs. WT |
| B5 | 1.48 fold vs. WT |
| B6 | 0.65 fold vs. WT |

From PMC7438327 (Cell Death & Disease, 2020)
